Measurements taken from article PMC6969166, “The molecular basis of pyrazinamide activity on Mycobacterium tuberculosis PanD” (Nature Communications, 2020).

Target: the molecule itself
Experiment: crystal structure

B1: Mycobacterium tuberculosis PanD (aspartate decarboxylase), wild type, processed active enzyme (enzyme)
chain 1: MLRTMLKSKIHRATVTCADLHYVG
chain 2: SVTIDADLMDAADLLEGEQVTIVDIDNGARLVTYAITGERGSGVIGINGAAAHLVHPGDLVILIAYATMDDARARTYQPRIVFVDAYNKPIDMGHDPAFVPENAGELLDPRLGVG
notes: also called Mtb PanD; Rv3601c; copies: 4 + 4
  stoichiometry N: 4
